# Positions count from the first letter of the chain named.
# T1: LZTR1-FLAG (human, UniProt Q8N653 1-840)
# T1 construct: Expressed in HEK 293T, HeLa or U87 cells; used as cell lysate; also called LZTR1 wild type-FLAG; LZTR1 WT; not shown: FLAG tag at the C-terminus
# T1 sequence (looked up): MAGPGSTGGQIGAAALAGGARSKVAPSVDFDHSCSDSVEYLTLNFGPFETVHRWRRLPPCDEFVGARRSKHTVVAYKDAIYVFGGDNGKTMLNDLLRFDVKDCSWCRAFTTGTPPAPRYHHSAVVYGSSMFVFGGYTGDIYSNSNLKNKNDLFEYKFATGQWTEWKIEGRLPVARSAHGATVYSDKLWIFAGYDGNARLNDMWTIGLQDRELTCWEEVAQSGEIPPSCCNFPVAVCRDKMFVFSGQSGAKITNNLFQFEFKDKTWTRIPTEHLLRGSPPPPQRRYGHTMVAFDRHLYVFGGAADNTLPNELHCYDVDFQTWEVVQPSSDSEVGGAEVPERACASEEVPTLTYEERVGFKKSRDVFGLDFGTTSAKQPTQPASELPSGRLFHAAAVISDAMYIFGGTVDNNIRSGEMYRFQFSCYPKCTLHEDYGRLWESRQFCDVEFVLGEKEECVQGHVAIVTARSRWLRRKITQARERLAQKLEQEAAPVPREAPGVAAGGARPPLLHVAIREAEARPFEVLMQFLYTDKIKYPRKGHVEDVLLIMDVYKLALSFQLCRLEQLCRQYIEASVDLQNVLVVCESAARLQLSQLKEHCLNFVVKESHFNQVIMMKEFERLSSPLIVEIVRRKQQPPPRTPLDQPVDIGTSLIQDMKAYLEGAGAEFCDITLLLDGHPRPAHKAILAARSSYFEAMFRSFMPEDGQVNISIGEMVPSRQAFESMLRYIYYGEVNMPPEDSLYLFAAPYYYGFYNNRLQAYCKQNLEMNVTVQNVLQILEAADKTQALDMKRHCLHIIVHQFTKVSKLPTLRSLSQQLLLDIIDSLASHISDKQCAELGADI
# T2: LZTR1 R810W-FLAG (human, UniProt Q8N653 1-840)
# T2 construct: Stably expressed in U87 cells by lentivirus; also called LZTR1-FLAG-R810W; LZTR1 RW; not shown: FLAG tag
# T2 sequence (looked up): T1 sequence (looked up) with R810W
# B1: BRAT1 (other, human, UniProt Q6PJG6 1-821, looked up)
# chain: MDPECAQLLPALCAVLVDPRQPVADDTCLEKLLDWFKTVTEGESSVVLLQEHPCLVELLSHVLKVQDLSSGVLSFSLRLAGTFAAQENCFQYLQQGELLPGLFGEPGPLGRATWAVPTVRSGWIQGLRSLAQHPSALRFLADHGAVDTIFSLQGDSSLFVASAASQLLVHVLALSMRGGAEGQPCLPGGDWPACAQKIMDHVEESLCSAATPKVTQALNVLTTTFGRCQSPWTEALWVRLSPRVACLLERDPIPAAHSFVDLLLCVARSPVFSSSDGSLWETVARALSCLGPTHMGPLALGILKLEHCPQALRTQAFQVLLQPLACVLKATVQAPGPPGLLDGTADDATTVDTLLASKSSCAGLLCRTLAHLEELQPLPQRPSPWPQASLLGATVTVLRLCDGSAAPASSVGGHLCGTLAGCVRVQRAALDFLGTLSQGTGPQELVTQALAVLLECLESPGSSPTVLKKAFQATLRWLLSSPKTPGCSDLGPLIPQFLRELFPVLQKRLCHPCWEVRDSALEFLTQLSRHWGGQADFRCALLASEVPQLALQLLQDPESYVRASAVTAMGQLSSQGLHAPTSPEHAEARQSLFLELLHILSVDSEGFPRRAVMQVFTEWLRDGHADAAQDTEQFVATVLQAASRDLDWEVRAQGLELALVFLGQTLGPPRTHCPYAVALPEVAPAQPLTEALRALCHVGLFDFAFCALFDCDRPVAQKSCDLLLFLRDKIASYSSLREARGSPNTASAEATLPRWRAGEQAQPPGDQEPEAVLAMLRSLDLEGLRSTLAESSDHVEKSPQSLLQDMLATGGFLQGDEADCY
# B2: CTH (other, human, UniProt P32929 1-405, looked up)
# chain: MQEKDASSQGFLPHFQHFATQAIHVGQDPEQWTSRAVVPPISLSTTFKQGAPGQHSGFEYSRSGNPTRNCLEKAVAALDGAKYCLAFASGLAATVTITHLLKAGDQIICMDDVYGGTNRYFRQVASEFGLKISFVDCSKIKLLEAAITPETKLVWIETPTNPTQKVIDIEGCAHIVHKHGDIILVVDNTFMSPYFQRPLALGADISMYSATKYMNGHSDVVMGLVSVNCESLHNRLRFLQNSLGAVPSPIDCYLCNRGLKTLHVRMEKHFKNGMAVAQFLESNPWVEKVIYPGLPSHPQHELVKRQCTGCTGMVTFYIKGTLQHAEIFLKNLKLFTLAESLGGFESLAELPAIMTHASVLKNDRDVLGISDTLIRLSVGLEDEEDLLEDLDQALKAAHPPSGSHS
# B3: CARS (other, human, UniProt P49589 2-748, looked up)
# chain: ADSSGQQGKGRRVQPQWSPPAGTQPCRLHLYNSLTRNKEVFIPQDGKKVTWYCCGPTVYDASHMGHARSYISFDILRRVLKDYFKFDVFYCMNITDIDDKIIKRARQNHLFEQYREKRPEAAQLLEDVQAALKPFSVKLNETTDPDKKQMLERIQHAVQLATEPLEKAVQSRLTGEEVNSCVEVLLEEAKDLLSDWLDSTLGCDVTDNSIFSKLPKFWEGDFHRDMEALNVLPPDVLTRVSEYVPEIVNFVQKIVDNGYGYVSNGSVYFDTAKFASSEKHSYGKLVPEAVGDQKALQEGEGDLSISADRLSEKRSPNDFALWKASKPGEPSWPCPWGKGRPGWHIECSAMAGTLLGASMDIHGGGFDLRFPHHDNELAQSEAYFENDCWVRYFLHTGHLTIAGCKMSKSLKNFITIKDALKKHSARQLRLAFLMHSWKDTLDYSSNTMESALQYEKFLNEFFLNVKDILRAPVDITGQFEKWGEEEAELNKNFYDKKTAIHKALCDNVDTRTVMEEMRALVSQCNLYMAARKAVRKRPNQALLENIALYLTHMLKIFGAVEEDSSLGFPVGGPGTSLSLEATVMPYLQVLSEFREGVRKIAREQKVPEILQLSDALRDNILPELGVRFEDHEGLPTVVKLVDRNTLLKEREEKRRVEEEKRKKKEEAARRKQEQEAAKLAKMKIPPSEMFLSETDKYSKFDENGLPTHDMEGKELSKGQAKKLKKLFEAQEKLYKEYLQMAQNGSFQ
# B4: CELF1 (other, human, UniProt Q92879 1-486, looked up)
# chain: MNGTLDHPDQPDLDAIKMFVGQVPRTWSEKDLRELFEQYGAVYEINVLRDRSQNPPQSKGCCFVTFYTRKAALEAQNALHNMKVLPGMHHPIQMKPADSEKNNAVEDRKLFIGMISKKCTENDIRVMFSSFGQIEECRILRGPDGLSRGCAFVTFTTRAMAQTAIKAMHQAQTMEGCSSPMVVKFADTQKDKEQKRMAQQLQQQMQQISAASVWGNLAGLNTLGPQYLALYLQLLQQTASSGNLNTLSSLHPMGGLNAMQLQNLAALAAAASAAQNTPSGTNALTTSSSPLSVLTSSGSSPSSSSSNSVNPIASLGALQTLAGATAGLNVGSLAGMAALNGGLGSSGLSNGTGSTMEALTQAYSGIQQYAAAALPTLYNQNLLTQQSIGAAGSQKEGPEGANLFIYHLPQEFGDQDLLQMFMPFGNVVSAKVFIDKQTNLSKCFGFVSYDNPVSAQAAIQSMNGFQIGMKRLKVQLKRSKNDSKPY
# B5: CCNB2 (other, human, UniProt O95067 1-398, looked up)
# chain: MALLRRPTVSSDLENIDTGVNSKVKSHVTIRRTVLEEIGNRVTTRAAQVAKKAQNTKVPVQPTKTTNVNKQLKPTASVKPVQMEKLAPKGPSPTPEDVSMKEENLCQAFSDALLCKIEDIDNEDWENPQLCSDYVKDIYQYLRQLEVLQSINPHFLDGRDINGRMRAILVDWLVQVHSKFRLLQETLYMCVGIMDRFLQVQPVSRKKLQLVGITALLLASKYEEMFSPNIEDFVYITDNAYTSSQIREMETLILKELKFELGRPLPLHFLRRASKAGEVDVEQHTLAKYLMELTLIDYDMVHYHPSKVAAAASCLSQKVLGQGKWNLKQQYYTGYTENEVLEVMQHMAKNVVKVNENLTKFIAIKNKYASSKLLKISMIPQLNSKAVKDLASPLIGRS
# B6: CREB3L2 (other, human, UniProt Q70SY1 1-520, looked up)
# chain: MEVLESGEQGVLQWDRKLSELSEPGDGEALMYHTHFSELLDEFSQNVLGQLLNDPFLSEKSVSMEVEPSPTSPAPLIQAEHSYSLCEEPRAQSPFTHITTSDSFNDDEVESEKWYLSTDFPSTSIKTEPVTDEPPPGLVPSVTLTITAISTPLEKEEPPLEMNTGVDSSCQTIIPKIKLEPHEVDQFLNFSPKEAPVDHLHLPPTPPSSHGSDSEGSLSPNPRLHPFSLPQTHSPSRAAPRAPSALSSSPLLTAPHKLQGSGPLVLTEEEKRTLIAEGYPIPTKLPLSKSEEKALKKIRRKIKNKISAQESRRKKKEYMDSLEKKVESCSTENLELRKKVEVLENTNRTLLQQLQKLQTLVMGKVSRTCKLAGTQTGTCLMVVVLCFAVAFGSFFQGYGPYPSATKMALPSQHSLQEPYTASVVRSRNLLIYEEHSPPEESSSPGSAGELGGWDRGSSLLRVSGLESRPDVDLPHFIISNETSLEKSVLLELQQHLVSAKLEGNETLKVVELDRRVNTTF
# Molecular target: T1, LZTR1-FLAG
# Assay: IP/MS, LZTR1 wild type-FLAG, U87
# Description: (§1) Lysates were immunoprecipitated with FLAG affinity matrix and eluted with FLAG peptide. […] Protein gel slices were excised and in-gel digestion performed as previously described (83), with minor modifications. Gel slices were washed with 1:1 A cetonitrile and 100 mM ammonium bicarbonate for 30 min then dehydrated with 100% acetonitrile for 10 min until shrunk. The excess acetonitrile was then removed and the slices dried in speed-vacuum at room temperature for 10 min. Gel slices were reduced with 5 mM DTT for 30 min at 56° C. in an air thermostat, cooled down to room temperature, and alkylated with 11 mM IAA for 30 min with no light. Gel slices were then washed with 100 mM of ammonium bicarbonate and 100% acetonitrile for 10 min each. Excess acetonitrile was removed and dried in a speed-vacuum for 10 min at room temperature and the gel slices were re-hydrated in a solution of 25 ng/μl trypsin in 50 mM ammonium bicarbonate for 30 min on ice and digested overnight at 37° C. in an air thermostat. Digested peptides were collected and further extracted from gel slices in extraction buffer (1:2 ratio by volume of 5% formic acid:acetonitrile) at high speed, shaking in an air thermostat. The supernatants from both extractions were combined and dried in a speed-vacuum. Peptides were dissolved in 3% acetonitrile/0.1% formic acid. Desalted peptides were injected in an EASY-Spray™ PepMap™ RSLC C18 50 cm×[…] column (Thermo Scientific) connected to an Orbitrap Fusion™ Tribrid™ (Thermo Scientific) as described in “Global ubiquitylation enrichment” section. The following modifications were used for protein identification and quantification: oxidation of methionine (M), acetylation of the protein N-terminus, and deamination for asparagine or glutamine (NQ). Results obtained from MaxQuant were assembled in Scaffold for data visualization.
row,binding result,Binder
1,binds,B1
2,binds,B2
3,binds,B3
4,binds,B4
5,binds,B5
6,binds,B6

# Molecular target: T2, LZTR1 R810W-FLAG
# Assay: IP/MS, LZTR1 R810W-FLAG, U87
# Description: as §1
row,binding result,Binder
1,binds,B1
2,binds,B2
3,binds,B3
4,binds,B4
5,binds,B5
6,binds,B6

# — US20250262210A1 (TRUSTEES OF COLUMBIA UNIVERSITY IN THE CITY OF NEW YORK, published 2025)
